{
  "source": "paper PMC3971960",
  "about": "(Biochemistry, 2014)",
  "key": {"[1]": {"biological_target": "T1, BlaI (Staphylococcus aureus, UniProt P0A042 1-126)", "T1 sequence": "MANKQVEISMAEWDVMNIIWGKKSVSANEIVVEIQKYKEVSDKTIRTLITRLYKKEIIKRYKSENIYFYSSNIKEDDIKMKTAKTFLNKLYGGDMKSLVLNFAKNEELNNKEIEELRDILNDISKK", "assay": "fluorescence anisotropy"}, "[2]": {"biological_target": "T2, MecI (Staphylococcus aureus NRS70 (N315), UniProt P68261 1-123)", "T2 sequence": "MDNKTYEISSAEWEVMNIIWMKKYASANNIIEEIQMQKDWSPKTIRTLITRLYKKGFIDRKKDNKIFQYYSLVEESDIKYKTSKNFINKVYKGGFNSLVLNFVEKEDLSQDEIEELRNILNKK", "assay": "fluorescence anisotropy"}, "[3]": {"biological_target": "the molecule itself", "assay": "MALDI mass spectrometry"}, "[4]": {"biological_target": "the molecule itself", "assay": "AUC"}},
  "data": [
    {"binder": "mec dsDNA (mec operator) (dsDNA) DNA 1: ATATAAGACTACATTTGTAGTATATTACAAATGTAGTATTT DNA 2: AAATACTACATTTGTAATATACTACAAATGTAGTCTTATAT", "values": [
      {"measurement": "Kd", "setting": "[1]", "result": "13 ± 6", "unit": "nM"},
      {"measurement": "Kd", "setting": "[2]", "result": "< 10", "unit": "nM"}
    ]},
    {"binder": "MecI (natural protein, S. aureus NRS70 (N315), UniProt P68261 1-123, looked up) MDNKTYEISSAEWEVMNIIWMKKYASANNIIEEIQMQKDWSPKTIRTLITRLYKKGFIDRKKDNKIFQYYSLVEESDIKYKTSKNFINKVYKGGFNSLVLNFVEKEDLSQDEIEELRNILNKK", "values": [
      {"measurement": "stoichiometry N", "setting": "[3]", "result": 5},
      {"measurement": "Kd", "setting": "[4]", "result": "300 ± 30", "unit": "nM"},
      {"measurement": "stoichiometry N", "setting": "[4]", "result": 2}
    ]}
  ]
}
